For 3 molecules, Kd results are on record in PMC6082870 (2018).

Common to all, as to assay: SPR
In general terms: In SPR one partner is held on a chip, and binding of the other changes the refractive index at the surface.

The target of test [1] is T1, human lysyl hydroxylase 3 (LH3/PLOD3), wild type (human, UniProt O60568 25-738, N-linked glycosylations at Asn63 and Asn548).
T1 chain: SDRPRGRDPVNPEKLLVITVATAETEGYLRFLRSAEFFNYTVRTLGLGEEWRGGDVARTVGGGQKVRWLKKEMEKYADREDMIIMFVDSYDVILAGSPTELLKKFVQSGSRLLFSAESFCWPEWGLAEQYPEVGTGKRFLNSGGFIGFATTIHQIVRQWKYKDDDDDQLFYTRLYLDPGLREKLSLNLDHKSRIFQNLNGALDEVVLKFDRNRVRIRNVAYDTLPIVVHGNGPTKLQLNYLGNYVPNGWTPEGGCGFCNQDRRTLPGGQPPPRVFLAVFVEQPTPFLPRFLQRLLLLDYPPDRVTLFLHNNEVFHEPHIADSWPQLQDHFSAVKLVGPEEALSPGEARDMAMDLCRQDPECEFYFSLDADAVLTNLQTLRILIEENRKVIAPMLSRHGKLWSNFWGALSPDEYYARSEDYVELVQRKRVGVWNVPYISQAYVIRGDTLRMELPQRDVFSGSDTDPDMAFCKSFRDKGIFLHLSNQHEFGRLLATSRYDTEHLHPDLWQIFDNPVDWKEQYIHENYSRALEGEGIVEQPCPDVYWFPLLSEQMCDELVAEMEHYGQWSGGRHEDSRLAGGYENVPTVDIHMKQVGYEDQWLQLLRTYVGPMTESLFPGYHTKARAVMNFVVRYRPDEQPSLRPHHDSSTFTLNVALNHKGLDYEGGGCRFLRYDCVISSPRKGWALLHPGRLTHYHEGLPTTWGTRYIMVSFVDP

Another test deals with LH3 Y114A mutant (human, UniProt O60568 25-738, Y114A).
Chain of LH3 Y114A mutant (O60568 25-738 Y114A): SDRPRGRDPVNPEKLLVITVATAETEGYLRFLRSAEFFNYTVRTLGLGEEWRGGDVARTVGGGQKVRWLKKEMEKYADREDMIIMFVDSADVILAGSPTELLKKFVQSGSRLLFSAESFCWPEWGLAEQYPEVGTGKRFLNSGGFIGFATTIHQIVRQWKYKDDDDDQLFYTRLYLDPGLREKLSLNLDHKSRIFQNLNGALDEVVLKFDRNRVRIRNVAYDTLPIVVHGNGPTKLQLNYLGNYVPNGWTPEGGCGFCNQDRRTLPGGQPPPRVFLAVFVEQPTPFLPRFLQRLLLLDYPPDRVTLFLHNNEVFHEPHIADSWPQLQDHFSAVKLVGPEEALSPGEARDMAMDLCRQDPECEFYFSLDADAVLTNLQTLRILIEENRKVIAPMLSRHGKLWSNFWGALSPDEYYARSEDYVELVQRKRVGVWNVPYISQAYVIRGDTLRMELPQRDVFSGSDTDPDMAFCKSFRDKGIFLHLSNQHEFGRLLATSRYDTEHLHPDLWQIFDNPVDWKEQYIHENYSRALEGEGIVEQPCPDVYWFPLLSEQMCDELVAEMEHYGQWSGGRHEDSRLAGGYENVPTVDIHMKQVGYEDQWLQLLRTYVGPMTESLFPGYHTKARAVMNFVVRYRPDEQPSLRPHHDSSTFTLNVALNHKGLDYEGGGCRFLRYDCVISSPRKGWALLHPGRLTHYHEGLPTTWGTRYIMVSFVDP
Another test has as its target LH3 W75A mutant (human, UniProt O60568 25-738, W75A).

Chain of LH3 W75A mutant (O60568 25-738 W75A): as the sequence (O60568 25-738 Y114A) above, with W51A, A90Y counted along it

As to GIKGIKGIKGIK, in test [1], the Kd (commonly the free concentration of one partner at which half of the binding sites on the other are occupied at equilibrium, for simple one-to-one binding) worked out at 2.4 mM.
The same measure, in the same setting: then IKGIKGIKG, with 6.7 mM.
ARGIKGIRGFS: the results for the equilibrium dissociation constant (Kd) (with LH3 Y114A mutant; with LH3 W75A mutant; in test [1]) were 6.3 mM, 4.7 mM and 4.4 mM, respectively.
